Source: patent publication EP4763858A1 (dated 2026)

T1: LMP1 (Epstein-Barr virus) peptide on HLA-A*02:01 (human)
T1 peptide: YLLEMLWRL


Molecular target: T1, LMP1 (Epstein-Barr virus) peptide on …
Assay: multimer staining

Binder | binding result
T cell receptor LMP1-TCR1 (TCR, V domains shown) Valpha: AQSVSQHNHHVILSEAASLELGCNYSYGGTVNLFWYVQYPGQHLQLLLKYFSGDPLVKGIKGFEAEFIKSKFSFNLRKPSVQWSDTAEYFCALPRWDGGYNKLIFGAGTRLAVHP Vbeta: DTEVTQTPKHLVMGMTNKKSLKCEQHMGHRAMYWYKQKAKKPPELMFVYSYEKLSINESVPSRFSPECPNSSLLNLHLHALQPEDSALYLCASSQEGTGELFFGEGSRLTVL | recognises
T cell receptor LMP1-TCR2 (TCR, V domains shown) Valpha: AQKITQTQPGMFVQEKEAVTLDCTYDTSDPSYGLFWYKQPSSGEMIFLIYQGSYDQQNATEGRYSLNFQKARKSANLVISASQLGDSAMYFCAMREVALNAGGTSYGKLTFGQGTILTVHP Vbeta: GAVVSQHPSWVICKSGTSVKIECRSLDFQATTMFWYRQFPKQSLMLMATSNEGSKATYEQGVEKDKFLINHASLTLSTLTVTSAHPEDSSFYICSASGAQPDDPQHFGDGTRLSIL | recognises
